In article PMC11370418:

Assays:
Test in all cases: …
[1] = target: DDIT3-GS-DDIT3 synthetic AD (human)
[2] = target: MYB-GS-MYB synthetic AD (human)
[3] = target: monomeric enhanced green fluorescent protein (meGFP)

Substance	fold change of Kd against single-site DDIT3 [1]	fold change of Kd against single-site MYB [2]	Kd [3]
P300 KIX domain (domain or fragment)	< 1.1 fold	< 1.1 fold	–
TFIID domain TAF12 (from UniProt Q16514 1-161) (natural protein)	–	–	> 100 µM
